{"source": "patent US20220370545A1", "about": "“INTEGRIN RECEPTOR ALPHA V BETA 3 AND ITS LIGAND INVOLVED IN CHRONIC ITCH” (North Carolina State University, priority 2019, published 2022)", "molecules": {"B1": {"name": "periostin: fasciclin extracellular matrix protein, endogenous ligand of integrin αvβ3; mouse recombinant used (protein)", "chain": "NSYYDKVLAHSRIRGRDQGPNVCALQQILGTKKKYFSSCKNWYQGAICGKKTTVLYECCPGYMRMEGMKGCPAVMPIDHVYGTLGIVGATTTQHYSDVSKLREEIEGKGSYTYFAPSNEAWENLDSDIRRGLENNVNVELLNALHSHMVNKRMLTKDLKHGMVIPSMYNNLGLFINHYPNGVVTVNCARVIHGNQIATNGVVHVIDRVLTQIGTSIQDFLEAEDDLSSFRAAAITSDLLESLGRDGHFTLFAPTNEAFEKLPRGVLERIMGDKVASEALMKYHILNTLQCSEAITGGAVFETMEGNTIEIGCEGDSISINGIKMVNKKDIVTKNGVIHLIDEVLIPDSAKQVIELAGKQQTTFTDLVAQLGLASSLKPDGEYTLLAPVNNAFSDDTLSMDQRLLKLILQNHILKVKVGLSDLYNGQILETIGGKQLRVFVYRTAICIENSCMVRGSKQGRNGAIHIFREIIQPAEKSLHDKLRQDKRFSIFLSLLEAADLKDLLTQPGDWTLFAPTNDAFKGMTSEERELLIGDKNALQNIILYHLTPGVYIGKGFEPGVTNILKTTQGSKIYLKGVNETLLVNELKSKESDIMTTNGVIHVVDKLLYPADIPVGNDQLLELLNKLIKYIQIKFVRGSTFKEIPMTVYRPAMTKIQIEGDPDFRLIKEGETVTEVIHGEPVIKKYTKIIDGVPVEITEKQTREERIITGPEIKYTRISTGGGETGETLQKFLQKEVSKVTKFIEGGDGHLFEDEEIKRLLQGDTPAKKIPANKRVQGPRRRSREGRSQ"}}, "key": {"dogs": {"tested_on": "dogs", "assay": "Periostin injection in dogs, pruritus manifestations", "assay_type": "in vivo, dog", "details": "mouse recombinant periostin 25 μg/100 μl intradermally, neck, within 15 minutes"}, "SST-positive DRG neurons": {"tested_on": "SST-positive DRG neurons", "assay": "Whole-cell patch clamp recordings in SST-positive mouse DRG neurons", "assay_type": "cell-based", "experimental": "DRGs were removed aseptically from SOM-reporter mice (6-8 weeks) and incubated with collagenase (1.25 mg/ml)/dispase-II (2.4 units/ml) (both from Roche, Basel, Switzerland) at 37° C. for 90 min, then digested with 0.25% trypsin for 8 min at 37° C., followed by 0.25% trypsin inhibitor. Cells were mechanically dissociated with a flame polished Pasteur pipette in the presence of 0.05% DNAse I (Sigma, St. Louis, Miss., United States of America). DRG cells were plated on glass cover slips and grown in a neurobasal defined medium (with 2% B27 supplement, Invitrogen, Carlsbad, Calif., United States of America) with 5 μM AraC and 5% carbon dioxide at 36.5° C. DRG neurons were grown for 24 hours before use. Whole-cell patch clamp recordings were performed at room temperature using an Axopatch-700B amplifier (Axon Instruments, Foster City, Calif., United States of America) with a Digidata 1440B (Axon Instruments, Foster City, Calif., United States of America). Only SOM-positive neurons (<[…]) were recorded. […] Pipette resistance was 4-6 MΩ for whole-cell recording of periostin—induced inward currents, as previously recorded (Han et al., Neuron, 2018, PMID: 30033153)"}}}
{"molecule": "B1", "values": [{"measurement": "itch after periostin injection in dogs", "setting": "dogs", "value": "robust scratching"}, {"measurement": "inward current by periostin", "setting": "SST-positive DRG neurons; periostin 1 μg/ml, pilot data", "value": "weak inward currents"}, {"measurement": "average inward current by periostin", "setting": "SST-positive DRG neurons; periostin 10 μg/ml, 8 neurons from 4 mice", "value": 58.4, "unit": "pA"}]}
